This is an account of results in US20130251712A1 (NATIONAL RESEARCH COUNCIL OF CANADA, published 2013).

Assay [1] has as its target T1, TβR2cK (R2cK), receptor-coil fusion with thrombin cleavage site, expressed alone (human).
T1 construct: Conditioned medium of 293 cells; also called TβR2cKcoil
T1 chain: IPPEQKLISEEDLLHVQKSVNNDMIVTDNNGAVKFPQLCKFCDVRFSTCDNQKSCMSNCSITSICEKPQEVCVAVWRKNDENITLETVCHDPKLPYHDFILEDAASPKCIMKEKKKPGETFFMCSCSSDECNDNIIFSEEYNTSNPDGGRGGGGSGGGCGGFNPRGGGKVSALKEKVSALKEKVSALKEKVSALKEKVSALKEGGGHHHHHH
The assay is described as follows: non-reducing SDS gel and western blot with anti-TβRII antibody; E/K coil dimer fixed by an interchain disulfide. On the procedure: Plasmids encoding the R2cK and R2cE constructs were transfected separately or co-transfected into 293 cells. Conditioned media from these cells were then analyzed by western blot to detect R2cK and R2cE expression and tested for TGF-β3 neutralization (FIG. 6A-C). By themselves R2cE or R2cK were unable to neutralize TGF-β3. […] Based on their activities in FIG. 6A, these forms are non-productive, i.e. cannot neutralize TGF-β. Expressed together, R2cE+R2cK predominantly form dimers of about 80 Kd and only minimal amounts of the monomers are seen in the non-reducing gel (FIG. 6B, lane 3), indicating a covalent, inter-chain disulfide bridge has been established (Click, FIG. 6B). Subsequent cleavage of R2cE+R2cK with a sufficient amount of thrombin (++) generates an R2c+R2c dimer (about 60 Kd) that is held together by an inter-chain disulfide (in the non-reducing SDS gel) and that no longer contains the coils (Cleave, FIG. 6C). The resultant TGF-/3 trap generated by the clamp/click/cleave (CCC) process described above is depicted as a molecular model in FIG. 7.
In general terms: Immunoblotting shows a protein as a band on a membrane.

Assay [2] addresses T2, TβR2ECD-cK5 (TβR2ECD with linker cassette fused to the cK5 C-terminal construct) (human).
T2 construct: Conditioned medium of 293 cells, expressed alone; also called TβR2-K5coil with internal cys/TEV
T2 chain: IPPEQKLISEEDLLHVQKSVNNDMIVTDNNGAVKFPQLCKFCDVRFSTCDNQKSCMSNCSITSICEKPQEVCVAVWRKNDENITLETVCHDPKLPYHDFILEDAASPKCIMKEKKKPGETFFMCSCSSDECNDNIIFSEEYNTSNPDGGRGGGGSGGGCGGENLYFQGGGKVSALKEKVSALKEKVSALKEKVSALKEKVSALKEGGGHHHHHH
Briefly: non-reducing SDS gel and western blot with anti-TβR2 antibody; E/K coil dimer fixed by an interchain disulfide.

B1: TβR2cE (R2cE), receptor-coil fusion with thrombin cleavage site, expressed alone (receptor)
chain: IPPEQKLISEEDLLHVQKSVNNDMIVTDNNGAVKFPQLCKFCDVRFSTCDNQKSCMSNCSITSICEKPQEVCVAVWRKNDENITLETVCHDPKLPYHDFILEDAASPKCIMKEKKKPGETFFMCSCSSDECNDNIIFSEEYNTSNPDGGRGGGGSGGGCGGFNPRGGGEVSALEKEVSALEKEVSALEKEVSALEKEVSALEKGGGHHHHHH
notes: Conditioned medium of 293 cells; also called TβR2cEcoil
As to B1, the binding result in assay [1] is on record as “binds”.

B2: TβR2ECD-cE5 (TβR2ECD with linker cassette fused to the cE5 C-terminal construct) (receptor)
chain: IPPEQKLISEEDLLHVQKSVNNDMIVTDNNGAVKFPQLCKFCDVRFSTCDNQKSCMSNCSITSICEKPQEVCVAVWRKNDENITLETVCHDPKLPYHDFILEDAASPKCIMKEKKKPGETFFMCSCSSDECNDNIIFSEEYNTSNPDGGRGGGGSGGGCGGENLYFQGGGEVSALEKEVSALEKEVSALEKEVSALEKEVSALEKGGGHHHHHH
notes: Secreted into conditioned medium of transfected 293 cells; tested unpurified, expressed alone; also called TβR2-E5coil with internal cys/TEV
As for B2, in assay [2], the binding result is recorded as “binds”.
